In this experiment the target is recombinant human CD38 his tagged (extracellular domain) (human) (UniProt P28907). Kind of experiment: ForteBio BLI.

pKd: −log10 of the molar value.

In the case of “IB4 (reference monoclonal agonistic mouse anti-human CD38 antibody)”, the negative-log Kd (pKd) was 8.05.

The values are drawn from US20200190209A1.
